Experimental data from US8207309B2, “Human synthetic single-chain antibodies directed against the common epitope of mutant P53 and their uses” (Ramot at Tel-Aviv University Ltd., priority 2005, dated 2012).
“Also recorded” adds a separate entry of the source. Read-outs that look alike come from different tables or passages of the source.

How the values were obtained:
[1] = system: BSA, Streptavidin, amyloid peptide (SEQ ID NO:2), MAP-PrP, PaP; details: ELISA, FIG. 9, SEQ ID NOs:2-4
[2] = target: T1, FRHSVV peptide (SEQ ID NO:1; common epitope of mutant p53) (Homo sapiens, UniProt P04637); experiment: Binding specificity ELISA of scFvs (FIG. 9)
T1 construct: A biotin conjugate of the peptide (FRHSVV)

[3] = target: T2, common epitope of mutant p53 (FRHSVV; SEQ ID NO:1) (Homo sapiens, UniProt P04637); experiment: BIAcore analysis of scFv binding to immobilized FRHSVV-biotin peptide; details: FRHSVV-biotin on streptavidin chip, 1:1 Langmuir model, read-out: affinity (binding constant) towards the common epitope (SEQ ID NO:1)
T2 construct: A biotin conjugate of the peptide (FRHSVV)
Description: Binding was determined using the BIACore at the indicated concentrations of antibodies. RU=resonance units. The binding constant was determined using the software that is supplied with the BIAcore instrument (wwwdotBiacoredotcom).
BIAcore Analysis—Real time analysis of the interaction between scFvs and FHRSVV-biotin were determined using BIAcore technology (Biacore AB, Uppsala, Sweden) according to manufacturer's instructions. The peptide FRHSVV-biotin was immobilized on a streptavidin coated sensor chip surface SA. The amount of immobilized peptide was 200 pg/mm^2, the binding was in HBS buffer (10 mM Hepes PH 7.4, 150 mM NaCl, 0.005% Tween-20, 3.4 mM EDTA). Several concentrations of purified scFv (62 nM, 125 nM, 250 nM, 1 μM and 2 μM) were injected at a flow rate of 20 μl/minute. […] Regeneration of the sensor chip was performed using 10 μl of 10 mM HCl. The kinetics parameters of the binding reactions were determined by BIAevaluation 4.0 Software (Biacore AB) using the 1:1 Langmuir model. The dissociation rate (off-rate) constant Kd and the association rate constant (on-rate) Ka were determined simultaneously according to manufacturer's instructions.
The scFv F2 and E6 antibodies display high affinity binding of the mutant epitope—To determine the affinity binding of the isolated scFvs towards the target peptide (SEQ ID NO:1), the BIAcore technology was employed. […]

| Molecule | binding to the other peptides or proteins tested [1] | binding to peptide of the common epitope of mutant p53 (SEQ ID NO:1) [2] | binding to peptide of the common epitope of mutant p53 (SEQ ID NO:1) ([2]; listed as A4) | Kd [3] [nM] |
| --- | --- | --- | --- | --- |
| A4 scFv: human scFv clone; VL CDRs SEQ ID NOs:36-38 (protein) scFv: VQLLESGGGLVQPGGSLRLSCAASGFTFSGYWMHWVRQAPGKGLEWVSEISGSGDSTHYGDSVKGRFTISRDNSKNTLYLQMNSLRAEDTAVYYCARGRNGSLDYWGQGTLVTVSSGSAGGGGSGGGGSGGGGSDIVLTQPPSASGTPGQRVTISCTGNSSNIGAGYDVHWYQQLPGKAPKLLIYSNNQRPSGVPDRFSGSKSGTSASLAISGLRSEDEADYYCAAWDDSLSSVVFGGGTKLTV | low affinity | high affinity | highly specific; also recorded: high binding specificity | – |
| B6 scFv: human scFv clone; VL CDRs SEQ ID NOs:27-29 (protein) scFv: VQLLESGGGLVQPGGSLRLSCAASGFTFSGYWMHWVRQAPGKGLEWVSEISGSGDSTHYGDSVKGRFTISRDNSKNTLYLQMNSLRAEDTAVYYCARGRNGSLDYWGQGTLVTVSSGSAGGGGSGGGGSGGGGSDIVLTQPPSASGTPGQRVTISCTGSSANIGAGYDVHWYQQLPGKAPKLLIYDNDKRPSGVPDRFSGSKSGTSASLAISGLRSEDEADYYCAAWDDRLSGVVFGGGTKVTV | low affinity | – | – | – |
| A6 scFv: human scFv, SEQ ID NO:115; VL CDRs SEQ ID NOs:60-62 (protein, Single chain Fv) scFv: VQLLESGGGLVQPGGSPRLSCAASGFTFSGYWMHWVRQAPGKGLEWVSEISGSGDSTHYGDSVKGRFTISRDNSKNTLYLQMNSLRAEDTAVYYCARGRNGSLDYWGQGTLVTVSSGSAGGGGSGGGGSGGGGSDIVLTQPPSASGTPGQRVTISCTGGRFNIGDYAVNWYQQLPGKAPKLLIYDNDRRPSGVSDRFSGSKSGTSASLAISGLRSEDEADYYCAAWDDSLDGLVFGGGTQLTV | – | – | – | 23 |
